{
  "source": "patent US6335019B1",
  "about": "“Methods for treating sensitivity to protein allergen using peptides which include a T cell epitope recognized by a T cell receptor specific for the protein allergen” (Immulogic Pharmaceutical Corp., priority 1989, dated 2002)",
  "molecules": {"B1": {"name": "chromatographically purified Amb a II: chromatographically purified Amb a II (Antigen K) from ragweed pollen (protein)", "chain": "GEEVDILPSPNDTRRSLQGCEAHNIIDKCWRCKPDWAENRQALGNCAQGFGKATHGGKWGDIYMVTSDQDDDVVNPKEGTLRFGATQDRPLWIIFQRDMIIYLQQEMVVTSDKTIDGRGAKVELVYGGITLMNVKNVIIHNIDIHDVRVLPGGRIKSNGGPAIPRHQSDGDAIHVTGSSDIWIDHCTLSKSFDGLVDVNWGSTGVTISNCKFTHHEKAVLLGASDTHFQDLKMHVTLAYNIFTNTVHERMPRCRFGFFQIVNNFYDRWDKYAIGGSSNPTILSQGNKFVAPDFIYKKNVCLRTGAQEPEWMTWNWRTQNDVLENGAIFVASGSDPVLTAEQNAGMMQAEPGDMVPQLTMNAGVLTCSPGAPC"}, "B2": {"name": "Amb a II: E. coli expressed recombinant Amb a II (Antigen K) (protein)", "chain": "LYFTLALVTLVQAGRLGEEVDILPSPNDTRRSLQGCEAHNIIDKCWRCKPDWAENRQALGDCAQGFGKATHGGKWGDIYMVTSDQDDDVVNPKEGTLRFGATQDRPLWIIFQRDMIIYLQQEMVVTSDTTIDGRGAKVELVYGGITLMNVKNVIIHNIDIHDVRVLPGGRIKSNGGPAIPRHQSDGDAIHVTGSSDIWIDHCTLSKSFDGLVDVNWGSTGVTISNCKFTHHEKAVLLGASDTHFQDLKMHVTLAYNIFTNTVHERMPRCRFGFFQIVNNFYDRWDKYAIGGSSNPTILSQGNKFVAPDFIYKKNVCLRTGAQEPEWMTWNWRTQNDVLENGAIFVASGSDPVLTAEQNAGMMQAEPGDMVPQLTMNAGVLTCSPGAPC"}},
  "key": {"[1]": {"system": "rabbit anti-Amb a I polyclonal antibody", "assay": "Western blot with rabbit anti-Amb a I polyclonal antibody (FIG. 17)", "assay_type": "binding", "description": "As is also represented in FIG. 1A, rabbit polyclonal antibodies were produced using the King Antigen E preparation. […] These antibodies were also shown, using a similar technique, to bind to the affinity purified Amb a I described previously (FIG. 17).\nIt is clear from the antibody reactivity that the 4B5/B7 affinity purified Amb a I has a recognition pattern similar to that of the Amb a I of pollen and skin test reagent with both rabbit polyclonal anti-Amb a I and JB1E3-4 anti-Amb a I monoclonal antibody (FIG. 17).\n(§1) Affinity purified Amb a I was electrophoresed, Western transferred (Towbin et al., Proc. Natl. Acad. Sci. USA, 76:4350 (1979)) and probed with a variety of antibodies, including IgE from an allergic patient (FIG. 17). In pollen extract Amb a I is not only present as an intact 38-KD species, but also characterized by its component 26KD alpha chains and 12-KD beta chains which are formed by enzymatic cleavage. The intact 38-KD species and the alpha chain are clearly detected using rabbit anti-Amb a I, polyclonal affinity purified anti-RAE 16 and monoclonal anti-Amb a I JBIE3-4 (FIG. 17); RAE 16 peptide has the sequence RTDKDLLENGAIC derived from amino-acids 343-353 of Amb a IB, FIG. 16). […]"}, "[2]": {"system": "human IgE (ragweed allergic patient sera)", "assay": "SDS-PAGE Western blot (and ELISA) of ragweed allergic patient IgE binding to pollen, affinity purified and recombinant Amb a I / Amb a II", "parameters": "key to IgE binding, summarized Western blot data: −: no signal over background; +−: barely discernable over background; +: clearly positive; ++: strongly positive; +++: highly positive", "experimental": "As represented in FIG. 1A, a selected monoclonal antibody (designated 4B5/B7) which recognizes an Amb a I preparation unsubjected to denaturing conditions was used to affinity purify from pollen extract a single protein, which is referred to as affinity purified Amb a I. This was carried out, using known techniques, by producing the desired monoclonal antibody, isolating it in large quantities from ascites and immobilizing it on Sepharose (Pharmacia). Aqueous pollen extract was passed over the monoclonal antibody-containing column and a protein species was eluted.\n(§2) Furthermore, full-length and truncated cDNAs encoding several members of the Amb a I multigene family, as well as Amb a II, were cloned in-frame into the expression vector pTrc99 (Amann et al. Gene, 69:301-315, (1988)) and transformed into the JM109 host. Expression of recombinant Amb a I and Amb a II protein was induced by 1 mM isopropyl-β-D-thiogalactopyranoside, cells were harvested, lysozyme treated, sonicated and insoluble inclusion bodies recovered by a low speed centrifugation. Recombinant Amb a I and Amb a II protein present in the recovered pellet was solubilized in buffer containing 8M urea, 50 mM Tris HC1 pH8.0, 50 mM NaCl, 1 mM EDTA, 1 mM dithiothreitol, 1 mM phenylmethylsulfonyl fluoride. After solubilization, the crude urea lysate was dialyzed at 4° C. against PBS. […] This antigenic cross-reactivity is consistent with the observed sequence homology of the cDNAs (see FIG. 16).\nComparison of human IgE binding to recombinant Amb a I and Amb a II proteins with anti-peptide and monoclonal anti-Amb a I antibodies have provided data consistent with the conclusion that the N-terminal portion (historically referred to as the β-region) of Amb a IA includes the major IgE eptiope(s).\nas §1, with “16). Affinity purified Amb a I (partial sequence presented in Table 1) as well as chromatographically purified Amb a II (partial sequence presented in Table 2) are bound on Western blots by these antibodies as well as by patient IgE (FIG. 17). The goat anti-Amb a I polyclonal antibody also binds multiple Amb a I and Amb a II species on a two dimensional Western blot of pollen extract (FIG. 18). The Western blot was performed as outlined below.” for “16).”"}, "[3]": {"system": "rabbit antisera directed against an Amb a II sequence (amino acid 326-338; RAE 50. K)", "assay": "Western blot of recombinant proteins with monospecific anti-peptide antisera against RAE 50. K", "assay_type": "binding", "details": "Western blots, data not shown", "description": "Proteins or peptides encoded by the cDNA of the present invention can be used, for example, as “purified” allergens. Such purified allergens are useful in the standardization of allergen extracts which are key reagents for the diagnosis and treatment of ragweed allergy. Furthermore, by using peptides based on the sequences listed in FIGS. 2 through 16, anti-peptide antisera or monoclonal antibodies can be made using standard methods. Such reagents can be specifically directed against individual isoforms of Amb a I or Amb a II (i.e., directed against divergent regions/epitopes of the molecule) or can be specific for all forms Amb a I or Amb a II (i.e, directed against common sequences/epitopes). These sera or monoclonal antibodies, directed against Amb a I or Amb a II, can be used to standardize allergen extracts. One such monospecific anti-peptide antisera has already been successfully produced."}, "[4]": {"system": "goat anti-Amb a I antibody", "assay": "Western blot of E. coli-expressed recombinant Amb a I / Amb a II with goat anti-Amb a I antibody (FIG. 19)", "assay_type": "binding", "experimental": "as §2\nIsoelectric focusing was done on a Hoeffer gel apparatus with 15 μg of crude soluble pollen protein. The gel consisted of 7.5% acrylamide with 3.5% Pharmalytes pH 4.5-5.3 (Pharmacia) and 3.5% Ampholines pH 3.5-10 (LKB), run at 13W for 3.5 hours until a constant voltage was reached. The gel section was placed on a slab of 10% acrylamide SDS-PAGE and electrophoresed for 3.5 hours at 40 mA according to the protocol cited. The proteins were transferred overnight in phosphate buffer to 0.1 micron nitrocellulose (Schleicher and Schuell) at 0.2A. The blot was rinsed in blot solution (25 mM Tris-CHl pH 7.5, 0.171 M NaCl, 0.05% Tween-20; Sigma). The first antibody incubation was overnight at room temperature with a […] of goat anti-Amb a I IgC (obtained from Dr. David Marsh) in blot solution. The excess first antibody was removed with three 15 minute rinses with blot solution. The second antibody was a 1:2,500 dilution of biotinylated swine anti-goat IgG (Boehringer-Manneheim) in blot solution for two hours. The blot was then rinsed with blot solution three times for 15 minutes and incubated for 1 hr in blot solution with 2 μCi I^125 streptavidin (Amersham). The blots were rinsed with blot solution until the waste wash was down to background. The blot was then exposed to film at —80° C. overnight. In the case of one-dimensional SDS-PAGE Western blots (FIGS. 17, 19 and 20) the isoelectric focusing step was omitted. When human sera was used to probe the Western blots (FIGS. 17 and 20), 10% human plasma in 1% milk in blot solution was incubated overnight with the blot prior to using as second antibody biotinylated goat anti-human IgE."}},
  "data": [
    {"molecule": "B1", "values": [
      {"measurement": "Binding by rabbit anti-Amb a I polyclonal antibodies (in words)", "setting": "[1]", "value": "cross-reactive B-cell epitopes"},
      {"measurement": "Human IgE binding (in words)", "setting": "[2]; Western blot (FIG. 17) and/or ELISA, ragweed allergic patient IgE", "value": "bound"}
    ]},
    {"molecule": "B2", "values": [
      {"measurement": "IgE binding, summarized Western blot data", "setting": "[2]; patient 151", "value": "+"},
      {"measurement": "IgE binding, summarized Western blot data", "setting": "[2]; patient 222", "value": "+"},
      {"measurement": "IgE binding, summarized Western blot data", "setting": "[2]; patient 291", "value": "+−"},
      {"measurement": "IgE binding, summarized Western blot data", "setting": "[2]; patient 295", "value": "−"},
      {"measurement": "IgE binding, summarized Western blot data", "setting": "[2]; patient 296", "value": "−"},
      {"measurement": "Binding by rabbit anti-RAE 50. K antisera (in words)", "setting": "[3]", "value": "binds specifically"},
      {"measurement": "Binding by goat anti-Amb a I antibody (in words)", "setting": "[4]", "value": "binds specifically"}
    ]}
  ]
}
